From article PMC8808179 (The Journal of Biological Chemistry, 2021)

Columns and labels:
[1] = target: human interleukin (IL)-13 (Homo sapiens, UniProt P35225); test: KinExA
[2] = target: T1, cynomolgus monkey (nonhuman primate) IL-13 (Macaca fascicularis); test: KinExA
T1 chain: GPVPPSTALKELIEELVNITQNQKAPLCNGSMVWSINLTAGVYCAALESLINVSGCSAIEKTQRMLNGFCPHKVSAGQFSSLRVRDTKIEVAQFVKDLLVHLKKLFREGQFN

[3] = target: T1, cynomolgus monkey (nonhuman primate) …; test: flow cytometry on cells

human interleukin (IL)-13, sequence (P35225 25-146): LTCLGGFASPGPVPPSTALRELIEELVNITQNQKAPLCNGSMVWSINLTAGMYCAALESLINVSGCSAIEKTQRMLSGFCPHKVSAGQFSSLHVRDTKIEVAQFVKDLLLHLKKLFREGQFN

Binder	Kd [1]	Kd [2]	binding result [3]
antibody 731 (antibody, V domains shown) VH: EVQLLESGGGLVQPGGSLRLSCAASGFTFSSYAMSWVRQAPGKGLEWVSAFSGSGGSTYYADSVKGRFTISRDNSKNTLYLQMNSLRAEDTAVYYCVQDGLGPYFYNYGMDVWGQGTTVTVSS VL: SYELTQPPSVSVSPGQTASITCSGDKLGDKYTCWFQQKPGQSPVLVIYHDSKRPSGIPERFSGSNSGDTATLTISGTQAMDEADYYCQAWDSSTYVFGTGTKVTVL	1.9 pM	3550 pM	–
MMAb2 (LC2/HC2) (antibody, V domains shown) VH: EVQLLESGGGLVQPGGSLRLSCAASGFTFSSYAGSWVRQAPGKGLEWVSAFSGSGGSTYYADSVKGRFTISRDNSKNTLYLQMNSLRAEDTAVYYCVQDGLGPYFYNYGMDVWGQGTTVTVSS VL: SYELTQPPSVSVSPGQTASITCSGDKLGDKYAFWFQQKPGQSPVLVIYHDSKRPSGIPERFSGSNSGDTATLTISGTQAMDEADYYCQAWDSSTYVFGTGTKVTVL	0.142 pM	12.4 pM	–
HC2 (heavy-chain variant of Ab731 with the parental light chain), membrane-tethered on the cell surface (antibody, V domains shown) VH: EVQLLESGGGLVQPGGSLRLSCAASGFTFSSYAGSWVRQAPGKGLEWVSAFSGSGGSTYYADSVKGRFTISRDNSKNTLYLQMNSLRAEDTAVYYCVQDGLGPYFYNYGMDVWGQGTTVTVSS VL: SYELTQPPSVSVSPGQTASITCSGDKLGDKYTCWFQQKPGQSPVLVIYHDSKRPSGIPERFSGSNSGDTATLTISGTQAMDEADYYCQAWDSSTYVFGTGTKVTVL	–	–	binds
MMAb1 (LC1/HC2) (antibody, V domains shown) VH: EVQLLESGGGLVQPGGSLRLSCAASGFTFSSYAGSWVRQAPGKGLEWVSAFSGSGGSTYYADSVKGRFTISRDNSKNTLYLQMNSLRAEDTAVYYCVQDGLGPYFYNYGMDVWGQGTTVTVSS VL: SYELTQPPSVSVSPGQTASITCSGDKLGDKYSFWFQQKPGQSPVLVIYHDSKRPSGIPERFSGSNSGDTATLTISGTQAMDEADYYCQAWDSSTYVFGTGTKVTVL	0.295 pM	18.7 pM	–
MMAb3 (LC1/HC1) (antibody, V domains shown) VH: EVQLLESGGGLVQPGGSLRLSCAASGFTFSSYAMSWVRQAPGKGLEWVSAFSGWDVSTYYADSVKGRFTISRDNSKNTLYLQMNSLRAEDTAVYYCVQDGLGPYFYNYGMDVWGQGTTVTVSS VL: SYELTQPPSVSVSPGQTASITCSGDKLGDKYSFWFQQKPGQSPVLVIYHDSKRPSGIPERFSGSNSGDTATLTISGTQAMDEADYYCQAWDSSTYVFGTGTKVTVL	0.034 pM	5.1 pM	–
HC1 (heavy-chain variant of Ab731 with the parental light chain), membrane-tethered on the cell surface (antibody, V domains shown) VH: EVQLLESGGGLVQPGGSLRLSCAASGFTFSSYAMSWVRQAPGKGLEWVSAFSGWDVSTYYADSVKGRFTISRDNSKNTLYLQMNSLRAEDTAVYYCVQDGLGPYFYNYGMDVWGQGTTVTVSS VL: SYELTQPPSVSVSPGQTASITCSGDKLGDKYTCWFQQKPGQSPVLVIYHDSKRPSGIPERFSGSNSGDTATLTISGTQAMDEADYYCQAWDSSTYVFGTGTKVTVL	–	–	binds
